This note sets out measurements from patent publication US20210355192A1 (YALE UNIVERSITY, published 2021).

The data set concerns the molecule itself. The data set is described as follows: gel filtration with multi-angle light scattering (self-association). Here is the method: Multi-angle Light Scattering. PFcR and subdomains (1 mg/ml) in 20 mM Tris-HCl buffer (pH 7.4) containing 0.2M NaCl was applied at 0.5 ml per minute to Superdex200 16/600 (GE, Boston, Mass.) gel filtration column in-line with DAWN HELEOS II light scattering instrument (Wyatt Technology, Santa Barbra, Calif.; laser wavelength 658 nm). Data collection and analysis used Astra software (Wyatt technology).

B1: His-tagged consensus filaggrin subdomain SD150 (other)
chain: SEDSDTQSVSAHGQAGPHQQSHQESARGRSGERSGRSGSFLYQVSTHEQSESAHGRTGPSTGGRQGSHHEQARDSSRHSASQEGQDTIRGHPGSSRGGRQGSHHEQSVDRSGHSGSHHSHTTSQGRSDASRGQSGSRSASRQTRNEEQSG
notes: His-tag kept (thrombin degraded the protein); also called long linker subdomain; not shown: 19-residue N-terminal tag (hexa-his, thrombin site, spacer residues)
In the case of B1, the binding result is on record as “no binding (tested: 1 mg/ml)”.

B2: His-tagged consensus filaggrin subdomain SD67 (other)
chain: SEDSERWSGSASRNHHGSAQEQSRDGSRHPRSHHEDRAGHGHSADSSRQSGTRHAETSSGGQAASSH
notes: His-tag kept (thrombin degraded the protein); also called short linker subdomain; not shown: 19-residue N-terminal tag (hexa-his, thrombin site, spacer residues)
For B2, the binding result was “no binding (tested: 1 mg/ml)”.
